Numbering of substitutions follows the chain as printed. Like-named read-outs stand apart in the source and are kept apart here.

This is an account of results in patent US20240287190A1 (THERANOTICS, published 2024).

Experiment [1] deals with T1, recombinant human TGFβ1 protein (R&D Systems, Cat #7754-BH-025/CF) (human, UniProt P01137 279-390).
T1 construct: Bought protein
As to the kind of experiment: bridging ELISA on plate-coated TGFβ1, detected with His-tag human B7-H3; paragraph 158 says the mono antibodies are not bound to TGFβ1. (In general: ELISA stands for enzyme-linked immunosorbent assay.)

The target in experiment [2] is T1, recombinant human TGFβ1 protein (R&D …). The experiment is described as above. This is another data set of the same source.

T1 sequence (P01137 279-390 limits assumed): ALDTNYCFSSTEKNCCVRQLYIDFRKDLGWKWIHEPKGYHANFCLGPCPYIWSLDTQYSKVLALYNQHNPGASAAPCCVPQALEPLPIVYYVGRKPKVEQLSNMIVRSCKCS

B1: #3 (mono) B7-H3 mono antibody free of TGFβ binding portion (antibody, human IgG1, N297A, V domains shown)
VH: EVQLLESGGGLVQPGGSLRLSCAASGFTFSTYYMTWVRQAPGKGLEWVSIINPRGGSTSYAEKFQGRFTISRDNSKNTLYLQMNSLRAEDTAVYYCARWNLGMDVWGQGTLVTVSS
VL: EIVLTQSPGTLSLSPGERATLSCRVSQSISSYLNWYQQKPGQAPRLLIYDASHRATGIPDRFSGSGSGTDFTLTISRLEPEDFAVYYCQQYYAPSVTFGQGTKVEIK
Regarding B1, the binding result in experiment [1] was “no binding”.

B2: #7 (mono) B7-H3 mono antibody free of TGFβ binding portion (antibody, human IgG1, N297A, V domains shown)
VH: EVQLLESGGGLVQPGGSLRLSCAASGFTFSNFWIGWVRQAPGKGLEWVSWINPPGSITSYADSVKGRFTISRDNSKDTLYLQMNSLRAEDTAVYYCAREVGDVLDYWGQGTLVTVSS
VL: QSVLTQPPSASGTPGQRVTISCTGTSSDIGRYNYVSWYQQLPGTAPKLLIYRNTQRPSGVPDRFSGSKSGTSASLAISGLRSEDEADYYCGTWDSSLNAYVFGGGTKLTVL
Take B2: the binding result in experiment [2] is listed as “no binding”.

B3: #4 (mono) B7-H3 mono antibody free of TGFβ binding portion (antibody, human IgG1, N297A, V domains shown)
VH: EVQLLESGGGLVQPGGSLRLSCAASGFTFSSYGMHWVRQAPGKGLEWVSAISGSGTSIYYANSVKSRFTISRDNSKNTLYLQMNSLRAEDTAVYYCARGAGWFDYWGQGTLVTVSS
VL: QSVLTQPPSASGTPGQRVTISCSGSTSNIGSNTVNWYQQLPGTAPKLLIYGKNIRPNGVPDRFSGSKSGTSASLAISGLHSEDEADYYCQSYDSSLSGWVFGGGTKLTVL
In the case of B3, the binding result in experiment [1] is given as “no binding”.

B4: #8 (mono) B7-H3 mono antibody free of TGFβ binding portion (antibody, human IgG1, N297A, V domains shown)
VH: EVQLLESGGGLVQPGSSLRLSCAASGFTFSSYWISWVRQAPGKGLEWVSEISPSGNTNYNPSLKSRFTISRDNSKNTLYLQMNSLRAEDTAVYYCAREVGDLLDYWGQGTLVTVSS
VL: QSVLTQPPSASGTPGQRVTISCSGSNIGNNYVSWYQQLPGTAPKLLIYQDSKRPSGVPDRFSGSKSGTSASLAISGLRSEDEADYYCLVWDRSSDHFVFGGGTKLTVL
With B4, the binding result in experiment [2] was “no binding”.

B5: #6 (mono) B7-H3 mono antibody free of TGFβ binding portion (antibody, human IgG1, N297A, V domains shown)
VH: EVQLLESGGGLVQPGGSLRLSCAASGFTFSTYAISWVRQAPGKGLEWVSSIYYSGYTHYNPSLESRFTISRDNSKNTLYLQMNSLRAEDTAVYYCARGYSGWMDVWGQGTLVTVSS
VL: QSVLTQPPSASGTPGQRVTISCGGNNIGSKSVHWYQQLPGTAPKLLIYDNNKRPSGVPNRFSGSKSGTSASLAISGLRSEDEADYYCAAWDDSLNVPVFGGGTKLTVL
On to B5, for which the binding result in experiment [2] was “no binding”.

B6: #9 (mono) B7-H3 mono antibody free of TGFβ binding portion (antibody, human IgG1, N297A, V domains shown)
VH: EVQLLESGGGLVQPGGSLRLSCAASGFTFSSYAMNWVRQAPGKGLEWVSTISGSGGQTYYADSVKGRFTISRDNSKNTLYLQMNSLRAEDTAVYYCARWRSIWAFDYWGQGTLVTVSS
VL: B5 VL with G23S, G24D, N59D, A88G, A89T, N95S, V96G
As to B6, in experiment [2], the binding result is listed as “no binding”.

B7: #5 (mono) B7-H3 mono antibody free of TGFβ binding portion (antibody, human IgG1, N297A, V domains shown)
VH: EVQLLESGGGLVQPGGSLRLSCAASGFTFSTYAMSWVRQAPGKGLEWVSAISGSGGSTLYADSVKGRFTISRDNSKNTLYLQMNSLRAEDTAVYYCARGGSATWAFDLWGQGTLVTVSS
VL: QSVLTQPPSASGTPGQRVTISCSGSSSNIGSNYVYWYQQLPGTAPKLLIYRNNQRPSGVPDRFSGSKSGTSASLAISGLRSEDEADYYCGTWDSSLSGVVFGGGTKLTVL
As to B7, the binding result in experiment [1] was “no binding”.
